Our source for the amyloid nucleation score values is the supplement of paper PMC12042874.

± gives the uncertainty stated by the source.

This data set can be described thus: amyloid nucleation score (Sup35N fusion, yeast selection) (log enrichment); library NNK2; higher = more nucleation; inactive = no reads after selection. In short, it runs like this: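 The nucleation score is a DiMSum log enrichment of output over input reads, centred on the mode score of non-aggregating sequences. Sequences under 100 input reads were excluded, and reads came from Illumina sequencing of plasmid inserts. Psi-negative yeast expressing Sup35N fused to peptides of 20 random codons were induced with 100 μM copper sulfate for 24 hours and grown 7 days at 30°C on medium lacking adenine and uracil. Random libraries had three technical output replicates.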
Take WLASPGDSSFMCLNVVVAAV: the amyloid nucleation score worked out at 0.723 ± 0.5.
As for WLEDAS, the figure is -0.557 ± 1.1; as for WLFSMRGGDAPKSKRRSIHH, 4.96 ± 0.1; as for WLFTRRTLVWQSTHPNVMTT, “inactive”.
With WLIFLTVISISCCDQGVRF, the amyloid nucleation score amounted to 7.401 ± 0.028.
Turning to WLIMT, the amyloid nucleation score entry was “inactive”.
Then WLIRL, with “inactive”; and WLKNKLMLVLFTESLPNRSP, with -1.02 ± 0.61; and WLNLGMNLLLE, with 3.77 ± 0.093.
Then WLQAHGIVYLNICRNSGFVH, with 5.12 ± 0.058; and WLRVTRLEIWQGKFSTNELT, with -0.755 ± 1.1; and WLSDRASCYRESRCVEQ, with -0.742 ± 0.42.
Then WLSSGAVRVKGCGFYNSRYN, with “inactive”.
Turning to WLWLND, the amyloid nucleation score was -0.661 ± 1.1.
Then WMGNLLGVRFMIKMIGYRAL, with “inactive”.
As for WMRRAVAAND, the figure is 0.186 ± 0.54; as for WMVIHSGADCQCL, 0.605 ± 0.36; as for WMWDFFYTGLLMRTF, “inactive”.
Then WMYGWERSRVYDGNIVDRRW, with 0.035 ± 1; and WNFKGRLLRMQLTRAHVNHT, with “inactive”; and WNHGIWS, with 1.03 ± 0.37.
Take WNIVVSYNDLFV: the amyloid nucleation score was -1.07 ± 0.76.
As for WNKFNICFKGKAW, the figure is 0.123 ± 0.5; as for WNTAYGRVLASL, 2.32 ± 0.092; as for WNVSGC, -0.474 ± 0.55.
As for WPFRESVY, the figure is 0.41 ± 0.5; as for WPWVSGPVKQSRCFRIDLSM, 0.459 ± 0.57.
Then WQIRWVYVSIWSQFAQTRGV, with 0.462 ± 0.29; and WRGGFWPCSVVLI, with 0.354 ± 0.65.
On to WRGGGLQLVQCDYRTLDNTQ, for which the amyloid nucleation score is -0.409 ± 0.37.
The substance WRRPFM gave an amyloid nucleation score of 0.163 ± 0.3.
Then WSDGLSPVKLVRLS, with 3.91 ± 0.094.
As for WSFDIAVTAR, the entry is “inactive”.
Substance WSFVGSTLSRDGSHNQDVHW yielded an amyloid nucleation score of 3.58 ± 0.098.
As for WSGVSGNLT, the figure is 0.145 ± 0.4.
For WSIPLSLMQSIRSCYNELIN, the amyloid nucleation score stood at 3.67 ± 0.11.
Substance WSSERWPEWIG came in with an amyloid nucleation score of 0.027 ± 0.24.
Then WSSKGVCYEVLCRFKVLQ, with 2.99 ± 0.084; and WSTLGIDVSSCT, with -1.52 ± 0.54.
As for WTKEAKIYSCFCSHF, the figure is 8.663 ± 0.08; as for WTSPGSLPKRALCGRVERYA, -0.53 ± 0.29.
As for WVCNFVMIRLGIFEF, the figure is 1.78 ± 0.14.
Consider WVDGVLGFKSTLARQSETGG, for which the amyloid nucleation score was -0.121 ± 1.1.
As for WVGHFIDISDATGRPWHMKA, the figure is -0.107 ± 0.53.
Then WVIDACLNRPLSERSYYRNK, with 0.767 ± 0.58; and WVIFSLVKWCMFSNDVVWVA, with -0.944 ± 0.34.
Regarding WVLCRRNLLGH, the amyloid nucleation score result is “inactive”.
As for WVQLWESASFGNRLVGNMSL, the figure is -0.352 ± 1.
Then WVSMVVCMVSYNSYFE, with 5.48 ± 0.062; and WVVLLFKCFFEVLMLPLKVI, with -0.29 ± 0.38.
As for WWHAAFFVAAFPNA, the figure is 2.19 ± 0.17; as for WWKAGFSCDTEMSRRPHTLV, -0.168 ± 1.1; as for WYDSIMT, -0.084 ± 0.35.
For the substance WYGCMVIAQWGFYYENNTSW, the amyloid nucleation score entry was “inactive”.
As for WYIRPSKTCEVSFGYPRRSW, the figure is -0.891 ± 1.1; as for WYRLAFQLELPLFHRSYRRW, 0.288 ± 0.37.
Then WYRTGMGNLLSRGDVDTVRT, with 0.131 ± 0.55.
As for WYVLFSMMWA, the figure is -1.36 ± 0.78.
In turn, WYWPCKGTREFKFNLYECSG came in with an amyloid nucleation score of 0.517 ± 0.41.
Substance YADKSKTCNYFSQLP displayed an amyloid nucleation score of 0.016 ± 1.1.
Consider YALWIVMLVP, for which the amyloid nucleation score was -0.104 ± 0.49.
Then YANDELLGAGGADS, with 0.652 ± 0.35; and YANMGYQGLIRGIGVLDWIK, with -0.119 ± 0.36; and YARANYYALLWPRLTFPMIL, with -1.41 ± 0.78.
Then YAVLIMYYALAKAWWSLKYG, with -0.002 ± 1.
Then YCANDVVMLSA, with 1.06 ± 0.17; and YCLELIGSLTHALPVKSLLV, with “inactive”.
As to YCNIPNRPVSKALRNHLS, the amyloid nucleation score result was “inactive”.
YCQSIVFCSI came in with an amyloid nucleation score of 3.84 ± 0.086.
Then YCSQAYHAGRRSALEQDSCM, with 0.734 ± 0.81; and YDGANWRSKGWLDLFSIMKQ, with -1.23 ± 0.75.
The substance YDKFPRNVGESYEHRCSWSE registered an amyloid nucleation score of 0.458 ± 0.8.
Turning to YDLRVMWRNVSSDFLREKVC, the amyloid nucleation score was -0.249 ± 1.
As for YDPDFSGYCYFAIILYIIFS, the figure is -1.5 ± 0.62; as for YDVRMSKMFAYTLSSEC, 0.203 ± 0.53; as for YFDTYLMTSRGCSIFMAQFR, 1.67 ± 0.28.
As for YFGTVHAILGFICLCLIIFQ, the figure is 3.66 ± 0.085; as for YFKFAGV, 4.16 ± 0.095.
As for YFLHCQPLVWDTLRVRQMVR, the figure is -0.062 ± 0.35; as for YFMLRSVTL, 3.75 ± 0.1; as for YFRCVASCVT, “inactive”.
On to YFRHVVAGHLRCCLLVSARD, for which the amyloid nucleation score was 2.7 ± 0.13.
As for YFRSYLLHTLLG, the figure is 0.479 ± 0.45.
Then YFRWGLSSKASLWHVRWALG, with 0.409 ± 0.8; and YFSKMS, with -0.817 ± 0.43.
On to YFSQQSEGSALCVLKHWVKS, for which the amyloid nucleation score turned out to be 0.253 ± 0.42.
Then YFSRWLFFYECKGDNLLRRE, with -0.512 ± 0.76; and YFTGSPVVHRLLSYNLFLRF, with 5.726 ± 0.039.
Then YFTWQHLRNSRMWV, with 3.34 ± 0.11; and YFVEYSW, with 0.542 ± 0.47; and YFWSRLRFVCRDRSGKNYCS, with -0.138 ± 0.76.
As for YFYYRFGHDVVF, the entry is “inactive”; as for YGKYSFSWEIRCLCEMTTKN, -0.608 ± 0.78.
For the substance YGLALFTRI, the amyloid nucleation score was -0.347 ± 0.44.
Then YGLWIKS, with -0.127 ± 1.1; and YGNCVHHVRGGLHAYRDHNC, with -0.137 ± 0.33; and YGRLRLVA, with -0.637 ± 0.54.
Then YGRVITGCLCQCIGDDGCGD, with 6.595 ± 0.039; and YGSKTRRVWGLRGYRDEGYR, with -0.413 ± 0.74.
Then YGSQISLTKEARQEKDTSGS, with -0.815 ± 0.34; and YGVEAECLEKNAALLCYNID, with “inactive”; and YGVFRSESRPTCLKSLDRMK, with 0.575 ± 0.34.
YGVYGHFKTLGNLTNRDVVS: the amyloid nucleation score was -1.36 ± 0.75.
As for YHHIV, the entry is “inactive”.
YIAIEYLFSFRGFRGTGVMG came in with an amyloid nucleation score of 0.034 ± 0.63.
Then YIDRVTYRLSTGSTMEAWSA, with 0.688 ± 0.15; and YIFFSEKISTMSYSDKLRMA, with 5.89 ± 0.083.
Then YIGEFGFILIPLRSFSPIPC, with “inactive”.
Then YIHVYVLMLGLNRQF, with 4.74 ± 0.071; and YIIGNVRNVRLWFRLSMNEV, with “inactive”.
YIKFIFCP: the amyloid nucleation score entry was “inactive”.
In the case of YINVALWIMSFSGSVWGKEP, the amyloid nucleation score worked out at 4.55 ± 0.064.
Then YIQLGWGLSKTWSHLTGELA, with 2.34 ± 0.14; and YIRLATYSLYALDWAVRKNR, with -0.548 ± 1.1.
Then YIRLHYGGVRRKVFTTILVI, with -0.26 ± 0.45.
Then YISNYPNVRLALDPTTCAGM, with -0.452 ± 0.48; and YITLQLVASRRRS, with 6.186 ± 0.045; and YIVCKDSTSQVYYFSSDNFY, with 4.09 ± 0.095.
YIVRNLVLLI: the amyloid nucleation score came to 5.577 ± 0.036.
Then YIVSSDLTGWGARRSCDFMA, with 0.571 ± 0.47; and YIWRLLLLRGCTVNFMSCNM, with 5.62 ± 0.067; and YKACRH, with 3.89 ± 0.055.
Consider YKDEGINEPYTVRTVHKLTT, for which the amyloid nucleation score amounted to 0.215 ± 0.76.
Then YKGEFFYWFKCVLYYKGNT, with “inactive”.
Then YKKGGLFDC, with -1.38 ± 0.39; and YKRHVGLRRNTLRQGYLLWF, with -0.547 ± 1.1; and YKRIHSSKFRPDYSHMV, with -0.403 ± 1.
Take YKVCRVFLVIYIHDFEWVVD: the amyloid nucleation score entry is “inactive”.
As for YLDRGYRGGFPFGKNVWTDG, the figure is -1.36 ± 0.78.
Then YLGDTEQECAF, with -1.37 ± 0.3.
In the case of YLGNLSPQRLRCFISLWIVQ, the amyloid nucleation score was -1.49 ± 1.1.
Then YLGWVVCFRHCLIGH, with 0.145 ± 0.56; and YLMRVRYSLCGLVVSVVAQD, with 0.856 ± 0.34; and YLNWCSSSRNYLSMLYWPMV, with -0.148 ± 0.5.
As for YLRYLWSRQPCSAGSQVACR, the figure is -0.145 ± 1.1.
Then YLSLNGVHYCIGSITIPSQR, with 8.06 ± 0.083.
Turning to YLSLYGNGC, the amyloid nucleation score was -0.627 ± 1.1.
Then YLSTFCGVFIYLVNIPLGRA, with 4.48 ± 0.058; and YLSVYCFMPVWDKWYRS, with -1.57 ± 0.38.
With YLSWHNFVYRLVYIYSGYFN, the amyloid nucleation score result was “inactive”.
